Results from patent US20180051081A1 (published 2018).

T1: dog CD47 (dog, UniProt A0A8I3PM61 19-310)
T1 construct: also called CD47 on dog RBCs
T1 sequence: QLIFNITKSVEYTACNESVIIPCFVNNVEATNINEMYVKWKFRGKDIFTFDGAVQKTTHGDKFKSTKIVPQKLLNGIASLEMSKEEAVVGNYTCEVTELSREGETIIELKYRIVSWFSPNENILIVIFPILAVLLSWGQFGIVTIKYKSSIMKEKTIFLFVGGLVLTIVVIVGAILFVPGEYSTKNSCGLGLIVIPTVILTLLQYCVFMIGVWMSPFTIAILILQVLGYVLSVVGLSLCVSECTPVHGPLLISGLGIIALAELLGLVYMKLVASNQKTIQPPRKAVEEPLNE

T2: pig CD47 (pig, UniProt Q9GKE8 19-303)
T2 construct: whole, on cells; also called CD47 on porcine RBCs
T2 sequence (looked up): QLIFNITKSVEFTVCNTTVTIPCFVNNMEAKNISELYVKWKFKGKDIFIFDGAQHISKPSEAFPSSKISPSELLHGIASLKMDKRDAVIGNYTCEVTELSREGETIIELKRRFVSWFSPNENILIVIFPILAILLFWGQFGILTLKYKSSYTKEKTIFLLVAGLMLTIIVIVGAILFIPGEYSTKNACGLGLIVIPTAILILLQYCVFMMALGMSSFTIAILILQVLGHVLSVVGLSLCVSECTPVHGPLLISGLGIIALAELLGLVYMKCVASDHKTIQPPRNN

T3: rat CD47 (rat, UniProt P97829 19-303)
T3 construct: whole, on cells; also called CD47 on rat RBCs
T3 sequence (looked up): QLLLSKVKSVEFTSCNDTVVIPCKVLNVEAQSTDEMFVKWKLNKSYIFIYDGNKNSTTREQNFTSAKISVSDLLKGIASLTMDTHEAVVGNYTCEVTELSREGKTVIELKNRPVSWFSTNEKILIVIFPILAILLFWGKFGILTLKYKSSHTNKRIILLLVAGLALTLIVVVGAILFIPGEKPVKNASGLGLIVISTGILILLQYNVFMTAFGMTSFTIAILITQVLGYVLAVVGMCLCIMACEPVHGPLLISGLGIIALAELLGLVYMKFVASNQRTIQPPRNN

T4: mouse CD47 (mouse, UniProt Q61735 19-303)
T4 construct: whole, on cells; also called CD47 on mouse RBCs; CD47 on 4T1 cells
T4 sequence (looked up): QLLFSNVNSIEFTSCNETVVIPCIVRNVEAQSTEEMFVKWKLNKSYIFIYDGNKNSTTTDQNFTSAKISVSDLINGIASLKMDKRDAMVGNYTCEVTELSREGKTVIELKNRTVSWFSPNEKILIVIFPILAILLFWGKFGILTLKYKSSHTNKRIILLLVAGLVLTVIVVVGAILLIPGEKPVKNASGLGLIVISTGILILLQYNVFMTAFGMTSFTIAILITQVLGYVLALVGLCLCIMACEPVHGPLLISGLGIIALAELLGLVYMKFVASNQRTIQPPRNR


What was measured:
dog CD47 = target: T1, dog CD47; experiment: FACS, dog RBCs, supernatant 10 ng/ml
Protocol: (§1) RBCs are incubated for 60 minutes on ice with tissue culture supernatants containing the secreted humanized antibodies at a concentration of 10 ng/ml in a solution of phosphate buffered saline, pH 7.2, 2.5 mM EDTA (PBS+E), or with various concentrations of purified antibodies. Cells are then washed with cold PBS+E, and incubated for an additional hour on ice with FITC labeled donkey anti-human antibody (Jackson Immuno Research Labs, West Grove, Pa.; Catalogue #709-096-149) in PBS+E. Cells are then washed with PBS+E, and antibody binding is analyzed using a BD FACSAria Cell Sorter (Becton Dickinson) or a C6 Accuri Flow Cytometer (Becton Dickinson). Antibody binding is quantitated by comparison of mean fluorescence values relative to that of chimeric antibody >VxP037-01LC (SEQ ID NO:7))/>VxP037-01HC (SEQ ID NO:57). The mean fluorescence value for each antibody is divided by the mean fluorescence value for the chimeric antibody.

pig CD47 = target: T2, pig CD47; experiment: FACS, pig RBCs, supernatant 10 ng/ml
Protocol: as §1

rat CD47 = target: T3, rat CD47; experiment: FACS, rat RBCs, supernatant 10 ng/ml
Protocol: as §1

human CD47 = target: T5, human CD47 (human, UniProt Q08722 19-323); experiment: FACS, human RBCs, supernatant 10 ng/ml
T5 construct: whole, on cells; also called CD47 on human RBCs; CD47 on OV10 cells
Protocol: as §1

mouse CD47 = target: T4, mouse CD47; experiment: FACS, mouse RBCs, supernatant 10 ng/ml
Protocol: as §1

T5 sequence (Q08722 19-323): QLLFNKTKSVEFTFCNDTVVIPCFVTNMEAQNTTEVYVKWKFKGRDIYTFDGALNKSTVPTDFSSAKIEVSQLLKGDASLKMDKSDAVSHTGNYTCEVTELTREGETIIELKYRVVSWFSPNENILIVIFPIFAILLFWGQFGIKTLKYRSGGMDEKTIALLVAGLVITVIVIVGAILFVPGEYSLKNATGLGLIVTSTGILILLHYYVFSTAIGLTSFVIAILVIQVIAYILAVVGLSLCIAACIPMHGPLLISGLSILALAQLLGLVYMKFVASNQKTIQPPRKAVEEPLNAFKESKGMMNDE

| mean fluorescence relative to chimera (dog CD47) | mean fluorescence relative to chimera (pig CD47) | mean fluorescence relative to chimera (rat CD47) | mean fluorescence relative to chimera (human CD47) | mean fluorescence relative to chimera (mouse CD47) | Binder |
| --- | --- | --- | --- | --- | --- |
| 1 | 1.1 | 1.2 | 0.8 | 0.7 | Clone 24 (pVxK7b-037-hum24-LC / pVxK7b-037-hum24-HC) (antibody, human IgG1, kappa, V domains shown, also called Cl 24) VH: QVQLQESGPGLVKPGATVKISCKVSGYTFTNYYVFWVRQARGQRLEWIGDINPVNGDTNFNEKFKNRVTITADKSTSTAYMELSSLRSEDTAVYYCARGGYTMDYWGQGTLVTVSS VL: AIQLTQSPSSLSASVGDRVTITCRSSQSLVHSNGNTYLHWYQQKPGQAPRLLIYKVSYRFSGVPSRFSGSGSGTEFTLTISSLQPDDFATYYCSQNTHVPRTFGQGTKVEIKR |
| 0.9 | 1.4 | 1.3 | 0.8 | 0.6 | Clone 12 (pVxK7b-037-hum12-LC / pVxK7b-037-hum12-HC) (antibody, human IgG1, kappa, V domains shown) VH: QVQLQESGPGLVKPGATVKISCKVSGYTFTNYYVFWVRQARGQRLEWIGDINPVNGDTNFNEKFKNRVTITADKSTSTAYMELSSLRSEDTAVYYCARGGYTMDYWGQGTLVTVSS VL: DIVMTQTPLSLPVTPGEPASISCRSSQSLVHSNGNTYLHWYQQKPGKAPKLLIYKVSYRFSGVPDRFSGSGSGTDFTLKISRVEAEDVGVYYCSQNTHVPRTFGQGTKVEIKR |
| 1 | 1.6 | 3.7 | 1.2 | 1.4 | Clone 9 (pVxK7b-037-hum09-LC / pVxK7b-037-hum09-HC) (antibody, human IgG1, kappa, also called Cl 9) light: DVVMTQSPLSLPVTLGQPASISCRSSQSLVHSNGNTYLHWYQQKPGKAPKLLIYKVSYRFSGVPDRFSGSGSGTDFTLKISRVEAEDVGVYYCSQNTHVPRTFGQGTKVEIKRTVAAPSVFIFPPSDEQLKSGTASVVCLLNNFYPREAKVQWKVDNALQSGNSQESVTEQDSKDSTYSLSSTLTLSKADYEKHKVYACEVTHQGLSSPVTKSFNRGEC heavy: not shown |
| 1.1 | 1.5 | 2.9 | 1.1 | 1.2 | Clone 10 (pVxK7b-037-hum10-LC / pVxK7b-037-hum10-HC) (antibody, human IgG1, kappa, V domains shown) VH: QVQLQESGPGLVKPSQTLSLTCTVSGYTFTNYYVFWVRQARGQRLEWIGDINPVNGDTNFNEKFKNRLTISKDTSKNQVVLTMTNMDPVDTATYYCARGGYTMDYWGQGTLVTVSS VL: DIVMTQTPLSLPVTPGEPASISCRSSQSLVHSNGNTYLHWYLQKPGQSPQLLIYKVSYRFSGVPDRFSGSGSGTDFTLKISRVEAEDVGVYYCSQNTHVPRTFGQGTKVEIKR |
| 1 | 1.4 | 2.8 | 1.1 | 1.2 | Clone 22 (pVxK7b-037-hum22-LC / pVxK7b-037-hum22-HC) (antibody, human IgG1, kappa, V domains shown) VH: QVQLQESGPGLVKPSQTLSLTCTVSGYTFTNYYVFWVRQARGQRLEWIGDINPVNGDTNFNEKFKNRLTISKDTSKNQVVLTMTNMDPVDTATYYCARGGYTMDYWGQGTLVTVSS VL: EIVLTQSPATLSVSPGERATLSCRSSQSLVHSNGNTYLHWYQQKPGQAPRLLIYKVSYRFSGVPSRFSGSGSGTDFTFTISSLEAEDAATYYCSQNTHVPRTFGQGTKVEIKR |
| 0.8 | 1.2 | 1.2 | 0.8 | 0.7 | Clone 11 (pVxK7b-037-hum11-LC / pVxK7b-037-hum11-HC) (antibody, human IgG1, kappa, V domains shown, also called Cl 11) VH: QVQLQESGPGLVKPGATVKISCKVSGYTFTNYYVFWVRQARGQRLEWIGDINPVNGDTNFNEKFKNRVTITADKSTSTAYMELSSLRSEDTAVYYCARGGYTMDYWGQGTLVTVSS VL: EIVLTQSPATLSVSPGERATLSCRSSQSLVHSNGNTYLHWYQQKPGQAPRLLIYKVSYRFSGVPSRFSGSGSGTDFTFTISSLEAEDAATYYCSQNTHVPRTFGQGTKVEIKR |

The next lines start with the binder.

| Binder | mean fluorescence relative to chimera (dog CD47) | mean fluorescence relative to chimera (pig CD47) | mean fluorescence relative to chimera (rat CD47) | mean fluorescence relative to chimera (human CD47) | mean fluorescence relative to chimera (mouse CD47) |
| --- | --- | --- | --- | --- | --- |
| Clone 4 (pVxK7b-037-hum04-LC / pVxK7b-037-hum04-HC) (antibody, human IgG1, kappa, V domains shown) VH: QVQLQESGPGLVKPSQTLSLTCTVSGYTFTNYYVFWVRQAPGKGLEWVSDINPVNGDTNFNEKFKNRVTISVDTSKNQFSLKLSSVTAADTAVYYCARGGYTMDYWGQGTLVTVSS VL: DIQMTQSPSSLSASVGDRVTITCRSSQSLVHSNGNTYLHWYLQKPGQSPQLLIYKVSYRFSGIPARFSGSGSGTEFTLTISSLQSEDFAVYYCSQNTHVPRTFGQGTKVEIKR | 0.6 | 0.6 | 1 | 0.6 | 0.6 |
| Clone 7 (pVxK7b-037-hum07-LC / pVxK7b-037-hum07-HC) (antibody, human IgG1, kappa, V domains shown) VH: QVQLQESGPGLVKPGATVKISCKVSGYTFTNYYVFWVRQARGQRLEWIGDINPVNGDTNFNEKFKNRVTITADKSTSTAYMELSSLRSEDTAVYYCARGGYTMDYWGQGTLVTVSS VL: DIVMTQTPLSLPVTPGEPASISCRSSQSLVHSNGNTYLHWYLQKPGQSPQLLIYKVSYRFSGVPDRFSGSGSGTDFTLKISRVEAEDVGVYYCSQNTHVPRTFGQGTKVEIKR | 0.8 | 0.9 | 0.8 | 0.5 | 0.4 |
| Clone 23 (pVxK7b-037-hum23-LC / pVxK7b-037-hum23-HC) (antibody, human IgG1, kappa) light: DIVMTQTPLSLPVTPGEPASISCRSSQSLVHSNGNTYLHWYQQKPGKAPKLLIYKVSYRFSGVPDRFSGSGSGTDFTLKISRVEAEDVGVYYCSQNTHVPRTFGQGTKVEIKRTVAAPSVFIFPPSDEQLKSGTASVVCLLNNFYPREAKVQWKVDNALQSGNSQESVTEQDSKDSTYSLSSTLTLSKADYEKHKVYACEVTHQGLSSPVTKSFNRGEC heavy: not shown | 1.1 | 1.7 | 3.3 | 1.2 | 1.4 |
| Clone 5 (pVxK7b-037-hum05-LC / pVxK7b-037-hum05-HC) (antibody, human IgG1, kappa) light: DIVMTQTPLSLPVTPGEPASISCRSSQSLVHSNGNTYLHWYLQKPGQSPQLLIYKVSYRFSGVPDRFSGSGSGTDFTLKISRVEAEDVGVYYCSQNTHVPRTFGQGTKVEIKRTVAAPSVFIFPPSDEQLKSGTASVVCLLNNFYPREAKVQWKVDNALQSGNSQESVTEQDSKDSTYSLSSTLTLSKADYEKHKVYACEVTHQGLSSPVTKSFNRGEC heavy: not shown | 1.1 | 1.2 | 2.2 | 1 | 1 |
| Clone 8 (pVxK7b-037-hum08-LC / pVxK7b-037-hum08-HC) (antibody, human IgG1, kappa) light: DIVMTQTPLSLPVTPGEPASISCRSSQSLVHSNGNTYLHWYQQKPGKAPKLLIYKVSYRFSGVPDRFSGSGSGTDFTLKISRVEAEDVGVYYCSQNTHVPRTFGQGTKVEIKRTVAAPSVFIFPPSDEQLKSGTASVVCLLNNFYPREAKVQWKVDNALQSGNSQESVTEQDSKDSTYSLSSTLTLSKADYEKHKVYACEVTHQGLSSPVTKSFNRGEC heavy: not shown | 0.8 | 0.8 | 1.2 | 0.7 | 0.7 |
